Assays:
[1] = biological target: mIFNAR2-ECD C94S (extracellular domain of mouse IFNAR2, His-tagged) (mouse) (UniProt O35664); test: SPR, ProteOn XPR36, His-tagged receptor on HTG chip, Langmuir model, mean of 10 experiments
[2] = biological target: T1, mIFNAR1-ECD (extracellular domain of mouse IFNAR1, His-tagged) (mouse, UniProt P33896 27-429); test: SPR, ProteOn XPR36, His-tagged receptor on HTG chip, Langmuir model, n=10 experiments
T1 construct: extracellular domain; The tag is placed at the C-terminus here only for lack of information; not shown: His-tag
T1 sequence (looked up): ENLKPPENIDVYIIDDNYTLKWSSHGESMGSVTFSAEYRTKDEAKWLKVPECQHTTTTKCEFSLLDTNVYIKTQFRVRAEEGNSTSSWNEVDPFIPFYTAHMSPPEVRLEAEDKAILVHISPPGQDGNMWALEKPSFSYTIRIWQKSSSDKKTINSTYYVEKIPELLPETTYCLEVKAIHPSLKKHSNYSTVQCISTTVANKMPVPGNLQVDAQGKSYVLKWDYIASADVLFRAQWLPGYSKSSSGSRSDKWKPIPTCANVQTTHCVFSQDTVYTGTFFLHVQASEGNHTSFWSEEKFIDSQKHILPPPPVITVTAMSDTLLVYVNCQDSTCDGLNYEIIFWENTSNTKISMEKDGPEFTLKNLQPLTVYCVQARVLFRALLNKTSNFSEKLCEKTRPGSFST
Method: (§1) For Surface Plasmon Resonance (SPR), mIFNAR1-ECD and rmIFN were expressed and purified from mammalian cell and insect cell culture, respectively, as previously described (Stifter et al. (2014) Protein Expr Purif 94:7-14); mIFNAR2-ECDC94S and rmIFN 1 were expressed and purified from mammalian cell culture also as previously described (de Weerd et al. (2013) supra). huIFNε is produced in a similar manner All SPR experiments were carried out on a ProteOn XPR36 (Bio-Rad Labs) using a HTG chip for His-tagged proteins and TBS as the running buffer. mIFNAR1-ECD and mIFNAR2-ECDC94S were immobilized to the nickel activated chip via the His-tags after dilution to […] in TBS. All IFNs (rmIFN 1, rmIFN and rmIFN) were diluted in TBS to various concentrations ranging from 40 nM to […]. All data were referenced according to the manufacturer's instructions (Bio-Rad) and analyzed using the Langmuir binding model. Data were considered for inclusion in the analysis only if the Chit value (the measure of error between measured and fitted values) was less than 10% of the Rₘₐₓ as per the manufacturer's instructions (Bio-Rad). Kₐ (1/Ms), Kd (1/s) and KD (nM) were calculated by the ProteOn Manager software and are represented as mean (+SD) from at least triplicate experiments. Significance was determined using one-way ANOVA with Dunnett's multiple comparisons testing. […]

[3] = biological target: mIFNAR2-ECD C94S (extracellular domain of mouse IFNAR2, His-tagged) (mouse) (UniProt O35664); test: SPR, ProteOn XPR36, His-tagged receptor on HTG chip
[4] = biological target: T1, mIFNAR1-ECD (extracellular domain of …); test: as above
Method: as §1

[5] = biological target: T1, mIFNAR1-ECD (extracellular domain of …); test: SPR, ProteOn XPR36, His-tagged receptor on HTG chip, Langmuir model, n=9 experiments
Method: as §1

[6] = biological target: T2, huIFNAR2 (human, UniProt P48551 27-243, limits assumed); test: microscale thermophoresis (MST), E. coli expressed huIFNε
T2 sequence (looked up): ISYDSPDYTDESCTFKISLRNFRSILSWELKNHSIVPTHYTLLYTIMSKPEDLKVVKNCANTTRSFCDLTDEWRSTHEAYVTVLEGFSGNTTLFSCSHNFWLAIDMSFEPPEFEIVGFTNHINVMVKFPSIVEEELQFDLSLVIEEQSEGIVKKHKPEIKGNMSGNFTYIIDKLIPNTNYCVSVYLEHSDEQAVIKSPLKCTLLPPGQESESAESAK

[7] = biological target: T2, huIFNAR2; test: microscale thermophoresis (MST)

Sequence of mIFNAR2-ECD C94S (extracellular domain of mouse IFNAR2, His-tagged) (mouse) (O35664 22-242, stated change not applied): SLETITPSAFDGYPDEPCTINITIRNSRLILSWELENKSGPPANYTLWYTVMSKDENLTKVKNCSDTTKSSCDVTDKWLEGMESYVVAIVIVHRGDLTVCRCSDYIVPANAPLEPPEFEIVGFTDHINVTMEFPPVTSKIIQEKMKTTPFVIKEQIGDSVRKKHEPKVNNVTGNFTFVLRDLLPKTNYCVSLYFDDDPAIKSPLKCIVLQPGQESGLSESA

recombinant murine interferon alpha 1 (rmIFNα1) (from UniProt P01572 24-189) (ligand)
Kd [1]: 1.68 nM

B1: recombinant murine interferon beta (rmIFNβ) (ligand, UniProt P01575 22-182, looked up)
chain: INYKQLQLQERTNIRKCQELLEQLNGKINLTYRADFKIPMEMTEKMQKSYTAFAIQEMLQNVFLVFRNNFSSTGWNETIVVRLLDELHQQTVFLKTVLEEKQEERLTWEMSSTALHLKSYYWRVQRYLKLMKYNSYAWMVVRAEIFRNFLIIRRLTRNFQN
notes: Printed as 'rmIFN' with the Greek letter lost
Kd [2]: 2.45 nM

B2: recombinant murine interferon epsilon (rmIFNε) (ligand)
chain: LEPKRIPFQLWMNRESLQLLKPLPSSSVQQCLAHRKNFLLPQQPVSPHQYQEGQVLAVVHEILQQIFTLLQTHGTMGIWEENHIEKVLAALHRQLEYVESLGGLNAAQKSGGSSAQNLRLQIKAYFRRIHDYLENQRYSSCAWIIVQTEIHRCMFFVFRFTTWLSRQDPDP
notes: also called muIFNε; MuIFNε
fold lower affinity than rmIFNα1 [3]: > 1000 fold | fold lower affinity than the rmIFNβ-IFNAR1-ECD interaction [4]: ~200 fold | Kd [5]: 556 nM

B3: human interferon epsilon (huIFNε), E. coli expressed and refolded (ligand)
chain: LDLKLIIFQQRQVNQESLKLLNKLQTLSIQQCLPHRKNFLLPQKSLSPQQYQKGHTLAILHEMLQQIFSLFRANISLDGWEENHTEKFLIQLHQQLEYLEALMGLEAEKLSGTLGSDNLRLQVKMYFRRIHDYLENQDYSTCAWAIVQVEISRCLFFVFSLTEKLSKQGRPLNDMKQELTTEFRSPRSA
notes: also called hIFN; rhIFN
Kd [6]: 8190 nM

B4: huIFNβ (ligand, human, UniProt P01574 22-187, looked up)
chain: MSYNLLGFLQRSSNFQCQKLLWQLNGRLEYCLKDRMNFDIPEEIKQLQQFQKEDAALTIYEMLQNIFAIFRQDSSSTGWNETIVENLLANVYHQINHLKTVLEEKLEKEDFTRGKLMSSLHLKRYYGRILHYLKAKEYSHCAWTIVRVEILRNFYFINRLTGYLRN
notes: Comparator in the MST measurement; The source of the protein is not clearly stated; also called rhuIFNβ
Kd [7]: 0.25 nM

From patent publication US20190351025A1 (HUDSON INSTITUTE OF MEDICAL RESEARCH, published 2019)
